The values that follow come from patent publication US20250197490A1 (HBM ALPHA THERAPEUTICS, published 2025).

Experiment [1] concerns the target T1, corticotropin-releasing hormone (CRH) peptide (human and mouse, UniProt P01143 145-185 (rat entry), not fully specified).
T1 peptide: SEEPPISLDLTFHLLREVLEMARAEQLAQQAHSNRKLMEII
Kind of experiment: cell-based or functional assay.

In experiment [2] the target is T1, corticotropin-releasing hormone (CRH) …. Kind of experiment: cell-based or functional assay.

B1: PR301777 (antibody, human IgG1, kappa, V domains shown)
VH: EMKLEESGGGLVQPGGSMKLSCVASGFTFSNYWMNWVRQSPEKGLEWVAEIRLKSNNYATHYAESVKGRFTISRDDSKSGVYLQMNNLGAEDTGIYYCTVGTLVYWGQGTLVTVSA
VL: DIVLTQSPASLAVSLGQRATISCRASQSVSTSTYNYMHWFQQKPGQPPKLLIKFASNLESGVPARFSGSGSGTDFTLNIHPVEEEDTATFYCQHSWEIPYTFGGGTKLEIKR
As to B1, the “unlabelled nM value (Table 5 matrix; likely hCRHR1-Luc IC50 as in Tables 6-8)” value (shortened to “unlabelled nM value”) in experiment [1] turned out to be 0.674 nM.

B2: PR302036 (antibody, human IgG1, kappa, V domains shown)
VH: EMQLVESGGGLVQPGGSLRLSCAASGFTFSNYWMNWVRQAPGKGLEWVAEIRLKSNNYATHYAESVKGRFTISRDDSKSSVYLQMNSLKTEDTAVYYCTVGTLVYWGQGTLVTVSS
VL: DIVLTQSPDSLAVSLGERATINCRASQSVSTSTYNYMHWFQQKPGQPPKLLIKFASNLESGVPDRFSGSGSGTDFTLTISSLQAEDTAVYYCQHSWEIPYTFGQGTKLEIKR
Regarding B2, the “unlabelled nM value” value in experiment [1] came out at 1.4 nM.

B3: PR302038 (antibody, human IgG1, kappa, V domains shown)
VH: EMQLVESGGGLVQPGGSLRLSCAASGFTFSNYWMNWVRQAPGKGLEWVAEIRLKSNNYATHYAESVKGRFTISRDDSKSSVYLQMNSLKTEDTAVYYCTVGTLVYWGQGTLVTVSS
VL: EIVLTQSPATLSLSPGERATLSCRASQSVSTSTYNYMHWFQQKPGQAPRLLIKFASNLESGIPARFSGSGSGTDFTLTISSLEPEDTAVYYCQHSWEIPYTFGQGTKLEIKR
For B3, the “unlabelled nM value” value in experiment [1] amounted to 3.34 nM.

B4: PR302050 (antibody, human IgG1, kappa, V domains shown)
VH: EMQLVESGGGLVQPGGSLKLSCAASGFTFSNYWMNWVRQASGKGLEWVAEIRLKSNNYATHYAESVKGRFTISRDDSKSTVYLQMNSLKTEDTAVYYCTVGTLVYWGQGTLVTVSS
VL: DIVLTQSPDSLAVSLGERATINCRASQSVSTSTYNYMHWFQQKPGQPPKLLIKFASNLESGVPDRFSGSGSGTDFTLTISSLQAEDTAVYYCQHSWEIPYTFGQGTKLEIKR
B4: the “unlabelled nM value” value in experiment [1] came to 0.572 nM.

B5: PR302031 (antibody, human IgG1, kappa, V domains shown)
VH: EVQLVESGGGLVQPGGSLRLSCAASGFTFSNYWMNWVRQAPGKGLEWVGEIRLKSNNYATHYAESVKGRFTISRDDSKNSLYLQMNSLKTEDTAVYYCTVGTLVYWGQGTLVTVSS
VL: EIVLTQSPATLSLSPGERATLSCRASQSVSTSTYNYMHWFQQKPGQAPRLLIKFASNLESGIPARFSGSGSGTDFTLTISSLEPEDTAVYYCQHSWEIPYTFGQGTKLEIKR
Take B5: the “unlabelled nM value” value in experiment [1] was determined as 14 nM.

B6: PR302043 (antibody, human IgG1, kappa, V domains shown)
VH: EVQLVESGGGLVQPGGSLKLSCAASGFTFSNYWMNWVRQASGKGLEWVGEIRLKSNNYATHYAESVKGRFTISRDDSKNTAYLQMNSLKTEDTAVYYCTRGTLVYWGQGTLVTVSS
VL: DIVLTQSPDSLAVSLGERATINCRASQSVSTSTYNYMHWFQQKPGQPPKLLIKFASNLESGVPDRFSGSGSGTDFTLTISSLQAEDTAVYYCQHSWEIPYTFGQGTKLEIKR
On to B6, for which the “unlabelled nM value” value in experiment [1] stood at 3.87 nM.

B7: PR302045 (antibody, human IgG1, kappa, V domains shown)
VH: EVQLVESGGGLVQPGGSLKLSCAASGFTFSNYWMNWVRQASGKGLEWVGEIRLKSNNYATHYAESVKGRFTISRDDSKNTAYLQMNSLKTEDTAVYYCTRGTLVYWGQGTLVTVSS
VL: EIVLTQSPATLSLSPGERATLSCRASQSVSTSTYNYMHWFQQKPGQAPRLLIKFASNLESGIPARFSGSGSGTDFTLTISSLEPEDTAVYYCQHSWEIPYTFGQGTKLEIKR
With B7, the “unlabelled nM value” value in experiment [1] came to 15.3 nM.

B8: PR302029 (antibody, human IgG1, kappa, V domains shown)
VH: EVQLVESGGGLVQPGGSLRLSCAASGFTFSNYWMNWVRQAPGKGLEWVGEIRLKSNNYATHYAESVKGRFTISRDDSKNSLYLQMNSLKTEDTAVYYCTVGTLVYWGQGTLVTVSS
VL: DIVLTQSPDSLAVSLGERATINCRASQSVSTSTYNYMHWFQQKPGQPPKLLIKFASNLESGVPDRFSGSGSGTDFTLTISSLQAEDTAVYYCQHSWEIPYTFGQGTKLEIKR
As to B8, in experiment [1], the “unlabelled nM value” value was 2.65 nM.

B9: PR302309-13 (antibody, human IgG1, kappa, V domains shown)
VH: QVQLVQSGSELKKPGASVKVSCKASGYTFTNYGMNWVRQAPGQGLEWMGWINTYTGEPIYTDDFKGRFVFSLDTSVSTAYLQISSLKAEDTAVYYCARSTMITTGGVFAYWGQGTLVTVSS
VL: DVLMAQTPLSLPVSLGDQASISCRSSQTIVHSDGNTYLEWYLQKPGQSPKLLIYKVSNRFSGVPDRFSGSGSGTDFTLKISRVEAEDLGVYYCFQGSHVPWTFGGGTKLEIKR
As to B9, the “hCRHR1-Luc 0.5 nM CRH IC50” value in experiment [2] amounted to 7.23 nM.

B10: PR302309-20 (antibody, human IgG1, kappa, V domains shown)
VH: QIQLVQSGAEVKKPGASVKVSCKASGYTFTNYGMNWVRQAPGQRLEWMGWINTYTGEPIYTDDFKGRVTITLDTSASTAYMELSSLRSEDTAVYYCSRSTMITTGGVFAYWGQGTLVTVSS
VL: DVVMTQTPLSLSVTPGQPASISCRSSQTIVHSDGNTYLEWYLQKPGQSPQLLIYKVSNRFSGVPDRFSGSGSGTDFTLKISRVEAEDLGVYYCFQGSHVPWTFGGGTKVEIKR
As for B10, in experiment [2], the “hCRHR1-Luc 0.5 nM CRH IC50” value stood at 3.07 nM.

B11: PR302309-17 (antibody, human IgG1, kappa, V domains shown)
VH: QVQLVQSGSELKKPGASVKVSCKASGYTFTNYGMNWVRQAPGQGLEWMGWINTYTGEPIYTDDFKGRFVFSLDTSVSTAYLQISSLKAEDTAVYYCARSTMITTGGVFAYWGQGTLVTVSS
VL: DVVMTQSPLSLPVTLGQPASISCRSSQTIVHSDGNTYLEWYQQRPGQSPRLLIYKVSNRFSGVPDRFSGSGSGTDFTLKISRVEAEDLGVYYCFQGSHVPWTFGGGTKVEIKR
Turning to B11, in experiment [2], the “hCRHR1-Luc 0.5 nM CRH IC50” value stood at 6.69 nM.

B12: PR302309-12 (antibody, human IgG1, kappa, V domains shown)
VH: QIQLVQSGSELKKPGASVKVSCKASGYTFTNYGMNWVRQAPGQGLEWMGWINTYTGEPIYTDDFKGRFVFSLDTSVSTAYLQISSLKAEDTAVYYCSRSTMITTGGVFAYWGQGTLVTVSS
VL: DVVMTQTPLSSPVTLGQPASISCRSSQTIVHSDGNTYLEWYQQRPGQPPRLLIYKVSNRFSGVPDRFSGSGAGTDFTLKISRVEAEDLGVYYCFQGSHVPWTFGGGTKVEIKR
Turning to B12, in experiment [2], the “hCRHR1-Luc 0.5 nM CRH IC50” value was 4.47 nM.

B13: PR302309-9 (antibody, human IgG1, kappa, V domains shown)
VH: QIQLVQSGSELKKPGASVKVSCKASGYTFTNYGMNWVRQAPGQGLEWMGWINTYTGEPIYTDDFKGRFVFSLDTSVSTAYLQISSLKAEDTAVYYCSRSTMITTGGVFAYWGQGTLVTVSS
VL: DIVMTQTPLSLSVTPGQPASISCRSSQTIVHSDGNTYLEWYLQKPGQSPQLLIYKVSNRFSGVPDRFSGSGSGTDFTLKISRVEAEDVGVYYCFQGSHVPWTFGGGTKVEIKR
With B13, the “hCRHR1-Luc 0.5 nM CRH IC50” value in experiment [2] was determined as 6.08 nM.

B14: PR302309-14 (antibody, human IgG1, kappa, V domains shown)
VH: QIQLVQSGSELKKPGASVKVSCKASGYTFTNYGMNWVRQAPGQGLEWMGWINTYTGEPIYTDDFKGRFVFSLDTSVSTAYLQISSLKAEDTAVYYCSRSTMITTGGVFAYWGQGTLVTVSS
VL: DVLMAQTPLSLPVSLGDQASISCRSSQTIVHSDGNTYLEWYLQKPGQSPKLLIYKVSNRFSGVPDRFSGSGSGTDFTLKISRVEAEDLGVYYCFQGSHVPWTFGGGTKLEIKR
On to B14, for which the “hCRHR1-Luc 0.5 nM CRH IC50” value in experiment [2] came out at 1.68 nM.

B15: PR302309-10 (antibody, human IgG1, kappa, V domains shown)
VH: QIQLVQSGSELKKPGASVKVSCKASGYTFTNYGMNWVRQAPGQGLEWMGWINTYTGEPIYTDDFKGRFVFSLDTSVSTAYLQISSLKAEDTAVYYCSRSTMITTGGVFAYWGQGTLVTVSS
VL: DVVMTQTPLSLSVTPGQPASISCRSSQTIVHSDGNTYLEWYLQKPGQSPQLLIYKVSNRFSGVPDRFSGSGSGTDFTLKISRVEAEDLGVYYCFQGSHVPWTFGGGTKVEIKR
With B15, in experiment [2], the “hCRHR1-Luc 0.5 nM CRH IC50” value is 3.2 nM.

B16: PR302309-7 (antibody, human IgG1, kappa, V domains shown)
VH: QIQLVQSGSELKKPGASVKVSCKASGYTFTNYGMNWVRQAPGQGLEWMGWINTYTGEPIYTDDFKGRFVFSLDTSVSTAYLQISSLKAEDTAVYYCSRSTMITTGGVFAYWGQGTLVTVSS
VL: DVVMTQSPLSLPVTLGQPASISCRSSQTIVHSDGNTYLEWFQQRPGQSPRRLIYKVSNRFSGVPDRFSGSGSGTDFTLKISRVEAEDVGVYYCFQGSHVPWTFGGGTKVEIKR
B16: the “hCRHR1-Luc 0.5 nM CRH IC50” value in experiment [2] stood at 6.38 nM.

B17: PR302309-16 (antibody, human IgG1, kappa, V domains shown)
VH: QIQLVQSGAEVKKPGASVKVSCKASGYTFTNYGMNWVRQAPGQRLEWMGWINTYTGEPIYTDDFKGRVTITLDTSASTAYMELSSLRSEDTAVYYCSRSTMITTGGVFAYWGQGTLVTVSS
VL: DVLMAQTPLSLPVSLGDQASISCRSSQTIVHSDGNTYLEWYLQKPGQSPKLLIYKVSNRFSGVPDRFSGSGSGTDFTLKISRVEAEDLGVYYCFQGSHVPWTFGGGTKLEIKR
Turning to B17, the “hCRHR1-Luc 0.5 nM CRH IC50” value in experiment [2] is 5.47 nM.

B18: PR302309-15 (antibody, human IgG1, kappa, V domains shown)
VH: QVQLVQSGAEVKKPGASVKVSCKASGYTFTNYGMNWVRQAPGQRLEWMGWINTYTGEPIYTDDFKGRVTITRDTSASTAYMELSSLRSEDTAVYYCARSTMITTGGVFAYWGQGTLVTVSS
VL: DVLMAQTPLSLPVSLGDQASISCRSSQTIVHSDGNTYLEWYLQKPGQSPKLLIYKVSNRFSGVPDRFSGSGSGTDFTLKISRVEAEDLGVYYCFQGSHVPWTFGGGTKLEIKR
Regarding B18, in experiment [2], the “hCRHR1-Luc 0.5 nM CRH IC50” value amounted to 10.5 nM.

B19: PR302309-19 (antibody, human IgG1, kappa, V domains shown)
VH: QIQLVQSGAEVKKPGASVKVSCKASGYTFTNYGMNWVRQAPGQRLEWMGWINTYTGEPIYTDDFKGRVTITLDTSASTAYMELSSLRSEDTAVYYCSRSTMITTGGVFAYWGQGTLVTVSS
VL: DVVMTQSPLSLPVTLGQPASISCRSSQTIVHSDGNTYLEWYQQRPGQSPRLLIYKVSNRFSGVPDRFSGSGSGTDFTLKISRVEAEDLGVYYCFQGSHVPWTFGGGTKVEIKR
For the molecule B19, the “hCRHR1-Luc 0.5 nM CRH IC50” value in experiment [2] was determined as 4.83 nM.

B20: PR302309-21 (antibody, human IgG1, kappa, V domains shown)
VH: QIQLVQSGAEVKKPGASVKVSCKASGYTFTNYGMNWVRQAPGQRLEWMGWINTYTGEPIYTDDFKGRVTITLDTSASTAYMELSSLRSEDTAVYYCSRSTMITTGGVFAYWGQGTLVTVSS
VL: DVVMTQTPLSSPVTLGQPASISCRSSQTIVHSDGNTYLEWYQQRPGQPPRLLIYKVSNRFSGVPDRFSGSGAGTDFTLKISRVEAEDLGVYYCFQGSHVPWTFGGGTKVEIKR
On to B20, for which, in experiment [2], the “hCRHR1-Luc 0.5 nM CRH IC50” value is 8.44 nM.
